Experiment [1] has as its target T1, cynomolgus macaque (Macaca fascicularis) CD39 (Macaca fascicularis, UniProt P49961 7-510 (human entry)).
T1 construct: On engineered CHO cells and on primary cyno B cells and monocytes; also called cyno CD39; cCD39
T1 chain: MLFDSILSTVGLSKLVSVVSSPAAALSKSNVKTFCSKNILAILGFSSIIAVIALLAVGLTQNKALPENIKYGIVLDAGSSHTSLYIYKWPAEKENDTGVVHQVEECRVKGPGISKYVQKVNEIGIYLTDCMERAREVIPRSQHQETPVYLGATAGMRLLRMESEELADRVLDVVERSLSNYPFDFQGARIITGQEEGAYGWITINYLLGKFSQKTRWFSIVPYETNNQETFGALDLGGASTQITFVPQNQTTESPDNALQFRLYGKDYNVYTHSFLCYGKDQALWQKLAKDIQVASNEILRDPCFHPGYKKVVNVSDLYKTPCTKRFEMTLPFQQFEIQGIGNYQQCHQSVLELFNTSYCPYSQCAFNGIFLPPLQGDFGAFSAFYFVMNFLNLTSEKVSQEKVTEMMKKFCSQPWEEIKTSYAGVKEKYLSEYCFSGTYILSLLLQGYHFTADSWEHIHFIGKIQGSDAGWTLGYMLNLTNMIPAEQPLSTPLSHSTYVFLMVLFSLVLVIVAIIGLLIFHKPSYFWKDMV
Nature of the experiment: flow cytometry, 100 nM IgG, MFI on CHO-cCD39 / MFI on parental CHO.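 Note: antibodies bound to the cells for 30 min in PBS, then bound IgG was revealed with a fluorescent goat anti-human IgG secondary antibody, 20 min on ice.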

The target of a further experiment is T2, human CD39 (cellular) (human, UniProt P49961 1-510).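 Note: cells exposed to IgG for 30 min on ice in PBS, bound antibody then revealed with a fluorescent goat anti-human IgG secondary (20 min, on ice).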
T2 construct: Same protein on engineered CHO cells and on cells that express it endogenously; also called hCD39; cellular CD39
T2 sequence: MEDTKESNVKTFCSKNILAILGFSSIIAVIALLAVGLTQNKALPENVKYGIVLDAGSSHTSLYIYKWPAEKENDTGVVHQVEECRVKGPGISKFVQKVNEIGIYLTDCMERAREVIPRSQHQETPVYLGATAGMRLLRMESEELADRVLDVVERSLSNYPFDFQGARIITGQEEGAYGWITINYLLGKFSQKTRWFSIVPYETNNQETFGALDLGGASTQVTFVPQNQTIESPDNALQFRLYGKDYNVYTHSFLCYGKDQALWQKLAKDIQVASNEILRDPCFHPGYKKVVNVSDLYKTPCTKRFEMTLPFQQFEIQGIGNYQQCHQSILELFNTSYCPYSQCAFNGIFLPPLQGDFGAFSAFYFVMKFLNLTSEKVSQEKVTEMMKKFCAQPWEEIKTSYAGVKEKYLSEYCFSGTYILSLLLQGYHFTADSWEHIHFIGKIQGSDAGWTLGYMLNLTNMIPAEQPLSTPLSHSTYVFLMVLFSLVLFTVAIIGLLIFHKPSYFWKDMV
Put plainly: flow cytometry, 100 nM IgG, MFI on CHO-hCD39 / MFI on parental CHO. (In general: A flow cytometer gives signals particle by particle.)

The target in a further experiment is T3, Chimera #4 (Homo sapiens (Human), UniProt P49961 1-510).
T3 construct: Expressed on CHO cells
T3 chain: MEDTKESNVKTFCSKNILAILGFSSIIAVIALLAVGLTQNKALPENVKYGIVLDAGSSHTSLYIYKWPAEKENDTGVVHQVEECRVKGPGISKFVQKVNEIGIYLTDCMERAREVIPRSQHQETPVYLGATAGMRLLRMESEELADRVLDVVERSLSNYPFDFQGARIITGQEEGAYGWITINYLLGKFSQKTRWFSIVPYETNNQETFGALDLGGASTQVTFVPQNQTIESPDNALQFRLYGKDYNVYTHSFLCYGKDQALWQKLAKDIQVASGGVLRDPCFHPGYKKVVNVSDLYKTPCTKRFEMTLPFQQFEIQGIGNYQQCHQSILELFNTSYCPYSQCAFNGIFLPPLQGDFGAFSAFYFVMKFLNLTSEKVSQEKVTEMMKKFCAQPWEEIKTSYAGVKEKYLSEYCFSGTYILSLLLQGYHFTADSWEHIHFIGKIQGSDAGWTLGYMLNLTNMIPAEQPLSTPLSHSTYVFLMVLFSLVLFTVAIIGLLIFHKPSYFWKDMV
Nature of the experiment: FACS on CHO cells, 15 ug/ml; human M1-S274 + mouse GGV + human L278-V510.

B1: 27596 (antibody, human IgG4 S228P, kappa, V domains shown)
VH: QVQLVQSGAEVKKPGSSVKVSCKASGGTFSSYAISWVRQAPGQGLEWMGGIIPIFGTANYAQKFQGRVTITADESTSTAYMELSSLRSEDTAVYYCARDPLGIRKHWFDPWGQGTLVTVSS
VL: EIVMTQSPATLSLSPGERATLSCRASQSVSSYLAWYQQKPGQAPRLLIYDASNRATGIPARFSGSGSGTDFTLTISSLEPEDFAVYYCQQHTVWPITFGGGTKVEIKR
Consider B1, for which the entries for the “Cell Binding (FOB)” value (in experiment [1]; with human CD39 (cellular)) were 257 fold over background and 252 fold over background, respectively.

B2: 27597 (antibody, human IgG4 S228P, kappa, V domains shown)
VH: QVQLVQSGAEVKKPGSSVKVSCKASGGTFSSYAISWVRQAPGQGLEWMGSIIPIFGTANYAQKFQGRVTITADESTSTAYMELSSLRSEDTAVYYCAREGRGYDSSRYYKFWFDPWGQGTLVTVSS
VL: EIVLTQSPATLSLSPGERATLSCRASQSVSSYLAWYQQKPGQAPRLLIYDASNRATGIPARFSGSGSGTDFTLTISSLEPEDFAVYYCQQFVLWPRTFGGGTKVEIKR
Regarding B2, the “Cell Binding (FOB)” value worked out at 908 fold over background in experiment [1] and 799 fold over background with human CD39 (cellular).

B3: 28347 (antibody, V domains shown)
VH: QVQLVQSGAEVKKPGSSVKVSCKASGGTFSSLAISWVRQAPGQGLEWMGGIIPIFGTANYAQKFQGRVTITADESTNTAYMELSSLRSEDTAVYYCARGGAKYASTYGMDVWGQGTTVTVSS
VL: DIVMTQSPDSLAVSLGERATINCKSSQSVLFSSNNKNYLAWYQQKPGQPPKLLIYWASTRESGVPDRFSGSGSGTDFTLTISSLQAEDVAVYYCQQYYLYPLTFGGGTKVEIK
B3: the “Cell Binding (FOB)” value came to 1340 fold over background in experiment [1] and 1020 fold over background with human CD39 (cellular).

B4: 31393 (antibody, human IgG4 S228P, kappa, V domains shown)
VH: QVQLVQSGAEVKKPGSSVKVSCKASGGTFESYGISWVRQAPGQGLEWMGSIIPEFGIANYAQKFQGRVTITADESTSTTYMELSSLRSEDTAVYYCARESGGYRDHRLDVWGQGTMVTVSS
VL: EIVMTQSPATLSVSPGERATLSCRASQSVGSNLAWYQQKPGQAPRLLIYGASTRATGIPARFSGSGSGTEFTLTISSLQSEDFAVYYCQQYLLWPLTFGGGTKVEIKR
Consider B4, for which the “Cell Binding (FOB)” value in experiment [1] came out at 2960 fold over background; with human CD39 (cellular), 1060 fold over background.

B5: 31873 (antibody, human IgG4 S228P, kappa, V domains shown)
VH: QVQLVQSGAEVKKPGSSVKVSCKASGGTFSKYGISWVRQAPGQGLEWMGSIIPEFGIANYAQKFQGRVTITADESTSTAYMELSSLRSEDTAVYYCARESGGYRDHRLGVWGQGTMVTVSS
VL: EIVMTQSPATLSVSPGERATLSCRASQSVGSNLAWYQQKPGQAPRLLIYGASTRASGIPARFSGSGSGTEFTLTISSLQSEDFAVYYCQQYLLWPLTFGGGTKVEIKR
For B5, the results for the “Cell Binding (FOB)” value (in experiment [1]; with human CD39 (cellular)) were 5080 fold over background and 1320 fold over background, respectively. The binding result with Chimera #4 is on record as “binds”.

B6: 31861 (antibody, human IgG4 S228P, kappa, V domains shown)
VH: QVQLVQSGAEVKKPGSSVKVSCKASGGTFGSYGISWVRQAPGQGLEWMGSIIPEFGIANYAQKFQGRVTITADESTSTAYMELSSLRSEDTAVYYCARESGTYRDHRLDVWGQGTMVTVSS
VL: EIVMTQSPATLSVSPGERATLSCRASQSVGSNLAWYQQKPGQAPRLLIYGASTRATGIPARFSGSGSGTEFTLTISSLQSEDFAVYYCQQYLLWPLTFGGGTKVEIKR
Consider B6, for which the “Cell Binding (FOB)” value in experiment [1] is 5480 fold over background; with human CD39 (cellular), 1430 fold over background.

B7: 31415 (antibody, human IgG4 S228P, kappa, V domains shown)
VH: QVQLVQSGAEVKKPGASVKVSCKASGYTFTSYQMHWVRQAPGQGLEWMGRINPSGGSTWYAQKFQGRVTMTRDTSTSTVYMELSSLRSEDTAVYYCARGKREGGTEYLRSWGQGTLVTVSS
VL: EIVLTQSPGTLSLSPGERATLSCRASQSVSSSYLAWYQQKPGQAPRLLIYGASSRATGIPDRFSGSGSGTDFTLTISRLEPEDFAVYYCQQYHSYITFGGGTKVEIKR
On to B7, for which the “Cell Binding (FOB)” value in experiment [1] is 3360 fold over background; with human CD39 (cellular) it was 1170 fold over background.

B8: 31891 (antibody, human IgG4 S228P, kappa, V domains shown)
VH: QVQLVQSGAEVKKPGASVKVSCKASGYIFKSYEMHWVRQAPGQGLEWMGRINPSVGSTWYAQKFQGRVTMTRDTSTSTVYMELSSLRSEDTAVYYCARGKREGGTEYLRVWGQGTLVTVSS
VL: EIVLTQSPGTLSLSPGERATLSCRASQSVSSSYLAWYQQKPGQAPRLLIYYASSRAYGIPDRFSGSGSGTDFTLTISRLEPEDFAVYYCQQYHNAITFGGGTKVEIKR
In the case of B8, the figures for the “Cell Binding (FOB)” value (in experiment [1]; in the experiment with human CD39 (cellular)) were 4650 fold over background and 1030 fold over background, respectively.

B9: 31430 (antibody, human IgG4 S228P, kappa, V domains shown)
VH: QVQLVQSGAEVKKPGASVKVSCKASGYTFKSYEMHWVRQAPGQGLEWMGRINPSGGSTWYAQKFQGRVTMTRDTSTSTVYMELSSLRSEDTAVYYCARGKREGGTEYLRHWGQGTLVTVSS
VL: EIVLTQSPGTLSLSPGERATLSCEASQSVSYSYLAWYQQKPGQAPRLLIYGASSRANGIPDRFSGSGSGTDFTLTISRLEPEDFAVYYCQQYHSALTFGGGTKVEIKR
As to B9, the figures for the “Cell Binding (FOB)” value (in experiment [1]; in the experiment with human CD39 (cellular)) were 3570 fold over background and 1220 fold over background, respectively.

B10: 31896 (antibody, V domains shown)
VH: QVQLVQSGAEVKKPGSSVKVSCKASGGTFSKLAISWVRQAPGQGLEWMGGIGFGTANYAQKFQGRVTITADESASTAYMELSSLRSEDTAVYYCARGGAKYASTHGMDVWGQGTTVTVSS
VL: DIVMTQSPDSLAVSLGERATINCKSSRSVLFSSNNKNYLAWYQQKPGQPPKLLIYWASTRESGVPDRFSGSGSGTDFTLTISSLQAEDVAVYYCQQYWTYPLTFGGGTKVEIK
Turning to B10, the figures for the “Cell Binding (FOB)” value (in experiment [1]; with human CD39 (cellular)) were 4540 fold over background and 1040 fold over background, respectively.

B11: 31915 (antibody, human IgG4 S228P, kappa, V domains shown)
VH: QVQLVQSGAEVKKPGSSVKVSCKASGGTFSSLPISWVRQAPGQGLEWMGGIGFGTANYAQKFQGRVTITADESTSTAYMELSSLRSEDTAVYYCARGGAKYASKWGMDVWGQGTTVTVSS
VL: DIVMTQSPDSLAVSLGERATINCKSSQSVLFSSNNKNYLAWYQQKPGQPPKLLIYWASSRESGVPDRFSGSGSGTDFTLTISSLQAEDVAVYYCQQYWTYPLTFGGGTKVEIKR
B11: the “Cell Binding (FOB)” value in experiment [1] was found to be 4580 fold over background; with human CD39 (cellular) it was 1090 fold over background.

(Values after patent US20210403593A1 (TIZONA THERAPEUTICS, published 2021).)
